Patent CN114516919A (SUZHOU BAIDAI MEDICAL SCIENCE AND TECH LIMITED COMPANY, dated 2022)

Molecular target: T1, 肾组织切片中的PLA2R1蛋白 (human, UniProt Q13018 21-1463)
T1 construct: whole, on cells
Assay: immunohistochemistry on FFPE kidney tissue sections, DAB

T1 sequence (Q13018 21-1463): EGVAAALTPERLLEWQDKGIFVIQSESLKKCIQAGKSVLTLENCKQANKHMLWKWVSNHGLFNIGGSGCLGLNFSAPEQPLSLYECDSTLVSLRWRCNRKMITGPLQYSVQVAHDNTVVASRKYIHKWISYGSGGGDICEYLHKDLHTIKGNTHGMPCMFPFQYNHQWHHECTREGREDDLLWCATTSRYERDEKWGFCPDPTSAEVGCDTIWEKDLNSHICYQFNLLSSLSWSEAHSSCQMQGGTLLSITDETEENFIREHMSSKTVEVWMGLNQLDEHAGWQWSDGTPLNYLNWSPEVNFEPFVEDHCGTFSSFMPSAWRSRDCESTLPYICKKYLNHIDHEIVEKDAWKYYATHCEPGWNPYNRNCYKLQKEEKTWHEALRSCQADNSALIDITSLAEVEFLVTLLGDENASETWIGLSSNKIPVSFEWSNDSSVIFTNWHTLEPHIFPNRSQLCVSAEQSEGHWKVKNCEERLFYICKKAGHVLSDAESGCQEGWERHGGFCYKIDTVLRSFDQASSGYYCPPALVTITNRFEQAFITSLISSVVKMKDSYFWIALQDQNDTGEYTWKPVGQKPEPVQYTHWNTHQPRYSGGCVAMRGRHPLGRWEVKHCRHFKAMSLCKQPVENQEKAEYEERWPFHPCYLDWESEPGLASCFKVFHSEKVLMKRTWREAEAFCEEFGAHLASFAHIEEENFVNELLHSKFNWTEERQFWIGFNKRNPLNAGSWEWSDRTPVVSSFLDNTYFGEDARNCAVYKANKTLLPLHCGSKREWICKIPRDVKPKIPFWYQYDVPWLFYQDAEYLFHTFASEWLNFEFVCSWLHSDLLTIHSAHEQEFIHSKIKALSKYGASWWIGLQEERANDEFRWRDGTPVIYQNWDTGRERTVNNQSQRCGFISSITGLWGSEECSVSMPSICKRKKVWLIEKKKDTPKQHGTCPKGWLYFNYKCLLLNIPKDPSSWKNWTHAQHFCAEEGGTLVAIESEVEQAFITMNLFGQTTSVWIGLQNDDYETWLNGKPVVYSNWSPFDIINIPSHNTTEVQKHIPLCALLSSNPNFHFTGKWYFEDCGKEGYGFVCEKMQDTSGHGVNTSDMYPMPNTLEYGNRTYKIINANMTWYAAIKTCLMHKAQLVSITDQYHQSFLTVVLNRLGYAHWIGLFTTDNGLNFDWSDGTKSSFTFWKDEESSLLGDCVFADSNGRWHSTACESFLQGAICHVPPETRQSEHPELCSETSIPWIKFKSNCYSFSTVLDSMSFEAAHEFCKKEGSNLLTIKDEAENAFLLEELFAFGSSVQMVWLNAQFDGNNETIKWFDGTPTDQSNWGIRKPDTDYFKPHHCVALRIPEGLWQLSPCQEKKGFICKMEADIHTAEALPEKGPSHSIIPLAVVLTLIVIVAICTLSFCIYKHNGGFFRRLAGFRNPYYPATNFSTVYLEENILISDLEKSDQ

binding result: binds
B1: 54D11抗PLA2R重组兔单克隆抗体 (antibody, V domains shown)
VH: QSVEESGGRLVTPGTPLTLTCTVSGIDLSSHGMGWVRQAPGKGLEWIGYINTGGSAYYASWAKGRFTISRTSTTVDLKMTSLTTEDTATYFCARGDPDYTSGFPIWGPGTLVTVSS
VL: AFEMTQTPASVEVAVGGTVTIKCQASESISSWLAWYQQKPGQPPKLLIYRASTLASGVPSRFSGSGSGTQFTLTISGVECADAATYYCQQGYSSHNIDNIFGGGTEVVVR
notes: also called 54D11抗PLA2R单克隆抗体; 54D11克隆的PLA2R重组兔单克隆抗体
